# Data from patent US20240270846A1 (published 2024).
# Molecular target: T1, CD3 epsilon homodimer protein (UniProt P07766 23-126)
# T1 construct: also called CD3 (CD3 epsilon)
# Test: SPR (Biacore T200), CD3e homodimer on CM4 chip, antibody as analyte; KD ratio vs unaltered GLS3000;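 further: CD3 epsilon homodimer amine-coupled to the sensor surface, antibodies injected as analyte at 25 °C with HBS-EP+ running buffer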
# Protocol: An appropriate amount of CD3 epsilon homodimer protein was immobilized onto Sensor chip CM4 (GE Healthcare Japan Corp.) by the amine coupling method. Then, the antibody having an appropriate concentration was injected thereto as an analyte and allowed to interact with the CD3 epsilon homodimer protein on the sensor chip. Then, the sensor chip was regenerated by the injection of 10 mmol/L glycine-HCl (pH 1.5). The assay was conducted at 25 degrees C., and HBS-EP+(GE Healthcare Japan Corp.) was used as a running buffer. […] Each parameter was calculated using Biacore T200 Evaluation Software (GE Healthcare Japan Corp.).
# Specifically, when the amount of the GLS3000-containing antibody bound was defined as X and the amount of the L chain one-amino acid altered form bound was defined as Y, a value of Z (ratio of amounts bound)=Y/X was used.
# T1 sequence (P07766 23-126): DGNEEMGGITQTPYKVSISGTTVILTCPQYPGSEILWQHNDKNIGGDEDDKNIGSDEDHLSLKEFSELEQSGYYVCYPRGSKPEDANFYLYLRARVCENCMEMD
row,Binder,KD ratio to GLS3000 [ratio]
1,"CE115HA000/GLS3000 H34M one-arm antibody (antibody, human IgG1, kappa, L234A L235A, N297A, name in Kabat numbering, one-arm IgG1) heavy: QVQLVESGGGVVQPGRSLRLSCAASGFTFSNAWMHWVRQAPGKGLEWVAQIKAKSNNYATYYAESVKGRFTISRDDSKNSLYLQMNSLKTEDTAVYYCRYVHYGAYYGVDAWGQGTTVTVSSASTKGPSVFPLAPSSKSTSGGTAALGCLVKDYFPEPVTVSWNSGALTSGVHTFPAVLQSSGLYSLSSVVTVPSSSLGTQTYICNVNHKPSNTKVDKKVEPKSCDKTHTCPPCPAPEAAGGPSVFLFPPKPKDTLMISRTPEVTCVVVDVSHEDPEVKFNWYVDGVEVHNAKTKPREEQYASTYRVVSVLTVLHQDWLNGKEYKCKVSNKALPAPIEKTISKAKGQPREPQVYTLPPSRCELTKNQVSLSCAVKGFYPSDIAVEWESNGQPENNYKTTPPVLDSDGSFFLVSKLTVDKSRWQQGNVFSCSVMHEALHNHYTQKSLSLSPDYKDDDDK EPKSSDKTHTCPPCPAPELLGGPSVFLFPPKPKDTLMISRTPEVTCVVVDVSHEDPEVKFNWYVDGVEVHNAKTKPREEQYNSTYRVVSVLTVLHQDWLNGKEYKCKVSNKALPAPIEKTISKAKGQPREPQVCTLPPSRDELTKNQVSLWCLVKGFYPSDIAVEWESNGQPENNYKTTPPVLDSDGSFFLYSKLTVDKSRWQQGNVFSCSVMHEALHNRYTQKSLSLSP light: DIVMTQSPLSLPVTPGEPASISCRSSQSLVHSNRNTYLMWYQQKPGQAPRLLIYKVSNRFSGVPDRFSGSGSGTDFTLKISRVEAEDVGVYYCGQGTQVPYTFGQGTKLEIKRTVAAPSVFIFPPSDEQLKSGTASVVCLLNNFYPREAKVQWKVDNALQSGNSQESVTEQDSKDSTYSLSSTLTLSKADYEKHKVYACEVTHQGLSSPVTKSFNRGEC",3.16
2,"CE115HA000/GLS3000 H34Q one-arm antibody (antibody, human IgG1, kappa, L234A L235A, N297A, name in Kabat numbering, one-arm IgG1) heavy: QVQLVESGGGVVQPGRSLRLSCAASGFTFSNAWMHWVRQAPGKGLEWVAQIKAKSNNYATYYAESVKGRFTISRDDSKNSLYLQMNSLKTEDTAVYYCRYVHYGAYYGVDAWGQGTTVTVSSASTKGPSVFPLAPSSKSTSGGTAALGCLVKDYFPEPVTVSWNSGALTSGVHTFPAVLQSSGLYSLSSVVTVPSSSLGTQTYICNVNHKPSNTKVDKKVEPKSCDKTHTCPPCPAPEAAGGPSVFLFPPKPKDTLMISRTPEVTCVVVDVSHEDPEVKFNWYVDGVEVHNAKTKPREEQYASTYRVVSVLTVLHQDWLNGKEYKCKVSNKALPAPIEKTISKAKGQPREPQVYTLPPSRCELTKNQVSLSCAVKGFYPSDIAVEWESNGQPENNYKTTPPVLDSDGSFFLVSKLTVDKSRWQQGNVFSCSVMHEALHNHYTQKSLSLSPDYKDDDDK EPKSSDKTHTCPPCPAPELLGGPSVFLFPPKPKDTLMISRTPEVTCVVVDVSHEDPEVKFNWYVDGVEVHNAKTKPREEQYNSTYRVVSVLTVLHQDWLNGKEYKCKVSNKALPAPIEKTISKAKGQPREPQVCTLPPSRDELTKNQVSLWCLVKGFYPSDIAVEWESNGQPENNYKTTPPVLDSDGSFFLYSKLTVDKSRWQQGNVFSCSVMHEALHNRYTQKSLSLSP light: DIVMTQSPLSLPVTPGEPASISCRSSQSLVHSNRNTYLQWYQQKPGQAPRLLIYKVSNRFSGVPDRFSGSGSGTDFTLKISRVEAEDVGVYYCGQGTQVPYTFGQGTKLEIKRTVAAPSVFIFPPSDEQLKSGTASVVCLLNNFYPREAKVQWKVDNALQSGNSQESVTEQDSKDSTYSLSSTLTLSKADYEKHKVYACEVTHQGLSSPVTKSFNRGEC",4.6
3,"CE115HA000/GLS3000 H34S one-arm antibody (antibody, human IgG1, kappa, L234A L235A, N297A, name in Kabat numbering, one-arm IgG1) heavy: QVQLVESGGGVVQPGRSLRLSCAASGFTFSNAWMHWVRQAPGKGLEWVAQIKAKSNNYATYYAESVKGRFTISRDDSKNSLYLQMNSLKTEDTAVYYCRYVHYGAYYGVDAWGQGTTVTVSSASTKGPSVFPLAPSSKSTSGGTAALGCLVKDYFPEPVTVSWNSGALTSGVHTFPAVLQSSGLYSLSSVVTVPSSSLGTQTYICNVNHKPSNTKVDKKVEPKSCDKTHTCPPCPAPEAAGGPSVFLFPPKPKDTLMISRTPEVTCVVVDVSHEDPEVKFNWYVDGVEVHNAKTKPREEQYASTYRVVSVLTVLHQDWLNGKEYKCKVSNKALPAPIEKTISKAKGQPREPQVYTLPPSRCELTKNQVSLSCAVKGFYPSDIAVEWESNGQPENNYKTTPPVLDSDGSFFLVSKLTVDKSRWQQGNVFSCSVMHEALHNHYTQKSLSLSPDYKDDDDK EPKSSDKTHTCPPCPAPELLGGPSVFLFPPKPKDTLMISRTPEVTCVVVDVSHEDPEVKFNWYVDGVEVHNAKTKPREEQYNSTYRVVSVLTVLHQDWLNGKEYKCKVSNKALPAPIEKTISKAKGQPREPQVCTLPPSRDELTKNQVSLWCLVKGFYPSDIAVEWESNGQPENNYKTTPPVLDSDGSFFLYSKLTVDKSRWQQGNVFSCSVMHEALHNRYTQKSLSLSP light: DIVMTQSPLSLPVTPGEPASISCRSSQSLVHSNRNTYLSWYQQKPGQAPRLLIYKVSNRFSGVPDRFSGSGSGTDFTLKISRVEAEDVGVYYCGQGTQVPYTFGQGTKLEIKRTVAAPSVFIFPPSDEQLKSGTASVVCLLNNFYPREAKVQWKVDNALQSGNSQESVTEQDSKDSTYSLSSTLTLSKADYEKHKVYACEVTHQGLSSPVTKSFNRGEC",1.24
4,"CE115HA000/GLS3000 H34N one-arm antibody (antibody, human IgG1, kappa, L234A L235A, N297A, name in Kabat numbering, one-arm IgG1) heavy: QVQLVESGGGVVQPGRSLRLSCAASGFTFSNAWMHWVRQAPGKGLEWVAQIKAKSNNYATYYAESVKGRFTISRDDSKNSLYLQMNSLKTEDTAVYYCRYVHYGAYYGVDAWGQGTTVTVSSASTKGPSVFPLAPSSKSTSGGTAALGCLVKDYFPEPVTVSWNSGALTSGVHTFPAVLQSSGLYSLSSVVTVPSSSLGTQTYICNVNHKPSNTKVDKKVEPKSCDKTHTCPPCPAPEAAGGPSVFLFPPKPKDTLMISRTPEVTCVVVDVSHEDPEVKFNWYVDGVEVHNAKTKPREEQYASTYRVVSVLTVLHQDWLNGKEYKCKVSNKALPAPIEKTISKAKGQPREPQVYTLPPSRCELTKNQVSLSCAVKGFYPSDIAVEWESNGQPENNYKTTPPVLDSDGSFFLVSKLTVDKSRWQQGNVFSCSVMHEALHNHYTQKSLSLSPDYKDDDDK EPKSSDKTHTCPPCPAPELLGGPSVFLFPPKPKDTLMISRTPEVTCVVVDVSHEDPEVKFNWYVDGVEVHNAKTKPREEQYNSTYRVVSVLTVLHQDWLNGKEYKCKVSNKALPAPIEKTISKAKGQPREPQVCTLPPSRDELTKNQVSLWCLVKGFYPSDIAVEWESNGQPENNYKTTPPVLDSDGSFFLYSKLTVDKSRWQQGNVFSCSVMHEALHNRYTQKSLSLSP light: DIVMTQSPLSLPVTPGEPASISCRSSQSLVHSNRNTYLNWYQQKPGQAPRLLIYKVSNRFSGVPDRFSGSGSGTDFTLKISRVEAEDVGVYYCGQGTQVPYTFGQGTKLEIKRTVAAPSVFIFPPSDEQLKSGTASVVCLLNNFYPREAKVQWKVDNALQSGNSQESVTEQDSKDSTYSLSSTLTLSKADYEKHKVYACEVTHQGLSSPVTKSFNRGEC",2.84

# Results, then the binder that gave them:
row,KD ratio to GLS3000 [ratio],Binder
1,1.22,"CE115HA000/GLS3000 H34P one-arm antibody (antibody, human IgG1, kappa, L234A L235A, N297A, name in Kabat numbering, one-arm IgG1) heavy: QVQLVESGGGVVQPGRSLRLSCAASGFTFSNAWMHWVRQAPGKGLEWVAQIKAKSNNYATYYAESVKGRFTISRDDSKNSLYLQMNSLKTEDTAVYYCRYVHYGAYYGVDAWGQGTTVTVSSASTKGPSVFPLAPSSKSTSGGTAALGCLVKDYFPEPVTVSWNSGALTSGVHTFPAVLQSSGLYSLSSVVTVPSSSLGTQTYICNVNHKPSNTKVDKKVEPKSCDKTHTCPPCPAPEAAGGPSVFLFPPKPKDTLMISRTPEVTCVVVDVSHEDPEVKFNWYVDGVEVHNAKTKPREEQYASTYRVVSVLTVLHQDWLNGKEYKCKVSNKALPAPIEKTISKAKGQPREPQVYTLPPSRCELTKNQVSLSCAVKGFYPSDIAVEWESNGQPENNYKTTPPVLDSDGSFFLVSKLTVDKSRWQQGNVFSCSVMHEALHNHYTQKSLSLSPDYKDDDDK EPKSSDKTHTCPPCPAPELLGGPSVFLFPPKPKDTLMISRTPEVTCVVVDVSHEDPEVKFNWYVDGVEVHNAKTKPREEQYNSTYRVVSVLTVLHQDWLNGKEYKCKVSNKALPAPIEKTISKAKGQPREPQVCTLPPSRDELTKNQVSLWCLVKGFYPSDIAVEWESNGQPENNYKTTPPVLDSDGSFFLYSKLTVDKSRWQQGNVFSCSVMHEALHNRYTQKSLSLSP light: DIVMTQSPLSLPVTPGEPASISCRSSQSLVHSNRNTYLPWYQQKPGQAPRLLIYKVSNRFSGVPDRFSGSGSGTDFTLKISRVEAEDVGVYYCGQGTQVPYTFGQGTKLEIKRTVAAPSVFIFPPSDEQLKSGTASVVCLLNNFYPREAKVQWKVDNALQSGNSQESVTEQDSKDSTYSLSSTLTLSKADYEKHKVYACEVTHQGLSSPVTKSFNRGEC"
2,1.1,"CE115HA000/GLS3000 H34T one-arm antibody (antibody, human IgG1, kappa, L234A L235A, N297A, name in Kabat numbering, one-arm IgG1) heavy: QVQLVESGGGVVQPGRSLRLSCAASGFTFSNAWMHWVRQAPGKGLEWVAQIKAKSNNYATYYAESVKGRFTISRDDSKNSLYLQMNSLKTEDTAVYYCRYVHYGAYYGVDAWGQGTTVTVSSASTKGPSVFPLAPSSKSTSGGTAALGCLVKDYFPEPVTVSWNSGALTSGVHTFPAVLQSSGLYSLSSVVTVPSSSLGTQTYICNVNHKPSNTKVDKKVEPKSCDKTHTCPPCPAPEAAGGPSVFLFPPKPKDTLMISRTPEVTCVVVDVSHEDPEVKFNWYVDGVEVHNAKTKPREEQYASTYRVVSVLTVLHQDWLNGKEYKCKVSNKALPAPIEKTISKAKGQPREPQVYTLPPSRCELTKNQVSLSCAVKGFYPSDIAVEWESNGQPENNYKTTPPVLDSDGSFFLVSKLTVDKSRWQQGNVFSCSVMHEALHNHYTQKSLSLSPDYKDDDDK EPKSSDKTHTCPPCPAPELLGGPSVFLFPPKPKDTLMISRTPEVTCVVVDVSHEDPEVKFNWYVDGVEVHNAKTKPREEQYNSTYRVVSVLTVLHQDWLNGKEYKCKVSNKALPAPIEKTISKAKGQPREPQVCTLPPSRDELTKNQVSLWCLVKGFYPSDIAVEWESNGQPENNYKTTPPVLDSDGSFFLYSKLTVDKSRWQQGNVFSCSVMHEALHNRYTQKSLSLSP light: DIVMTQSPLSLPVTPGEPASISCRSSQSLVHSNRNTYLTWYQQKPGQAPRLLIYKVSNRFSGVPDRFSGSGSGTDFTLKISRVEAEDVGVYYCGQGTQVPYTFGQGTKLEIKRTVAAPSVFIFPPSDEQLKSGTASVVCLLNNFYPREAKVQWKVDNALQSGNSQESVTEQDSKDSTYSLSSTLTLSKADYEKHKVYACEVTHQGLSSPVTKSFNRGEC"
